Laboratory results published in US20230203156A1, “ANTI-MDR1 ANTIBODIES AND USES THEREOF” (KENJOCKETY BIOTECHNOLOGY, INC., priority 2020, published 2023).
“Also recorded” adds a separate entry of the source.

Columns and labels:
human MDR1 [1] = target: T1, human MDR1 (Homo sapiens, UniProt P08183); experiment: Antibody binding/titration to 293T cells overexpressing human MDR1 (FACS); conditions: 293T cell line overexpressing human MDR1
T1 construct: expressed in transfected cells
Protocol: Antibody binding to cells was evaluated by flow cytometry. 293T cells stably transfected to express human ABCB1 (293T_KPB1_OX) were washed once in flow cytometry buffer (PBS + 2% FBS + 0.02% sodium azide), resuspended at 2 x 10 \^6 cells/mL in flow cytometry buffer, and dispensed into 96-well microtiter plates at 0.1 mL/well. In the figures, “B1” refers to ABCB1 (also known as MDR1 or Pgp). Recombinant antibodies were added to cells at 5 ug/mL for initial binding confirmation, or serially diluted from 100 ug/mL in flow cytometry buffer. After incubating cells on ice for 30 min, cells were washed twice with flow cytometry buffer. Bound antibody was detected with PE-labeled F(ab′)2 fragment goat anti-human IgG (Jackson ImmunoResearch) and evaluated on an Attune NxT flow cytometer.
Binding titration of recombinant antibodies to ABCB1 transfectants was performed by 3-fold serial dilution of antibodies from 666.7 nM. Diluted antibody in flow cytometry buffer was incubated with cells on ice for 30 min. After 2 washes with flow cytometry buffer, bound antibody was detected with PE-labeled F(ab′)2 fragment goat anti-human IgG (Jackson ImmunoResearch) diluted 1:200 in flow cytometry buffer and incubated with cells for 20 min on ice. After 2 washes with flow cytometry buffer fluorescence was measured on an Attune NxT flow cytometer. Data were analyzed with GraphPad Prism 8.0 software to determine EC50′s.
(§1) Anti-MDR1 mAb B1.129 and a humanized version thereof were assessed for binding to 293T cell line overexpressing human MDR1 or to 293T cells transfected with cynomolgus MDR1. […] B1.129.hz1 and B1.129.hz2 antibodies are the same as the humanized versions B1.129.huH1-huL1(KV3) and B1.129.huH1-huL1(KV1), respectively, listed in Table 2. FIG. 10C summarizes the binding data for the B1.129 antibody.

cynomolgus MDR1 = experiment: Antibody binding to 293T cells transfected with cynomolgus MDR1
Protocol: as §1
Anti-MDR1 mAb B1.28 and a humanized version thereof were assessed for binding to 293T cell line overexpressing human MDR1 or to 293T cells transfected with cynomolgus MDR1.

[2] = tested on: A2780 ADR ovarian carcinoma; experiment: A2780 ADR drug-resistant ovarian carcinoma model in nude mice; format: in vivo; conditions: for tumor volume, single agent: antibody as a single agent; for tumor volume, in combination with paclitaxel: antibody plus paclitaxel
Protocol: (§2) Anti-ABCB1 antibodies B1.129, B1.261, B1.223, B1.225, B1.188, B1.28, and B1.226 were tested for effect on growth of tumors in immunodeficient mice. The following cancer cell lines were used for generating tumor models.
A2780 ADR: The adriamycin-resistant cell line A2780ADR has been developed by exposure of the parent A2780 cell line (Sigma catalogue no. 93112519) to adriamycin. A2780ADR is cross-resistant to melphalan and vinblastine. To retain resistance adriamycin has to be added to the media. The cells grow as a monolayer and in suspension in spinner cultures and are tumorigenic in immune deficient mice. Together with the cisplatin-resistant variant A2780cis these lines only differ in their exposure to a single drug and should facilitate the search for molecular changes responsible for the expression of pleiotropic drug resistance in human ovarian cancer.
Nude mice were implanted with A2780 ADR cells to model ovarian carcinoma. Anti-B1 monoclonal antibodies are efficacious in A2780 ADR ovarian carcinoma model in nude mice.

human MDR1 [3] = target: T1, human MDR1; experiment: Efflux blockade of MDR1 fluorescent substrates (flow cytometry); format: cell-based
Protocol: HEK 293T cells expressing human MDR1 or MES-SA/DX5 cells expressing human MDR1 were washed several times and aliquoted into 96-well plates as 50 µl aliquots/well at a cell density of 1 x 10e6 cells per ml in phenol red-free DMEM. Cells were mixed with 300 nM to 1 nM antibodies and incubated for 1 h at 37° C. To determine efflux blockade cells were incubated in the presence of B1 fluorescent substrates as follows: 0.6 µM Rhodamine; 5 µM […] (DiOC2(3)) or 0.6 µM Calcein AM for 1.5 h at 37° C. The cells were then washed twice and finally resuspended in […] PBS. Rhodamine, DiOC2(3) or Calcein AM fluorescence were measured by flow cytometry.
Effect of anti-MDR1 antibodies on efflux of MDR1 substrates Calcein, DIOC2, and Rhodamine was assessed as described in efflux blockade experimental procedure.

[4] = tested on: MES-SA DX5 uterine sarcoma; experiment: MES-SA DX5 drug-resistant uterine sarcoma model in nude mice; format: in vivo; conditions: for tumor volume / tumor growth, single agent / tumor volume / tumor growth, in combination with paclitaxel: MES-SA DX5, nude mice; for tumor volume / tumor growth, single agent: antibody as a single agent; for tumor volume / tumor growth, in combination with paclitaxel: antibody plus paclitaxel
Protocol: as §2
MES-SA DX5: The multi drug-resistant cell line MES-SA/Dx5 (Sigma. 95051031) was derived from the human uterine sarcoma cell line MES-SA (Sigma Catalogue number. 95051030) which was originally obtained from a tumour from a person at the time of hysterectomy. […] Cross resistance to bleomycin, cisplatin, carmustine, 5-fluorouracil or methotrexate was not observed.
Nude mice were implanted with MES-SA DX5 cells to model uterine sarcoma. Anti-B1 monoclonal antibodies are efficacious in MES-SA DX5 uterine sarcoma model in nude mice.

[5] = target: T2, human MDR1 extracellular loops 1 and 4 (ECD1, ECD4) (Homo sapiens, UniProt P08183); experiment: Epitope mapping with mutant human MDR1 expressed on 293T cells (flow cytometry); format: binding; conditions: extracellular loop 1 and extracellular loop 4
T2 construct: FLAG (C); expressed in transfected cells; host or cells: 293T
From the text: (§3) To determine binding of anti-MDR1 mAbs listed in Table 2 to the two major extracellular loops 1 and 4 of MDR1, various mutations were constructed to alter or substitute these two loops. To examine binding to cynomolgus extracellular loops, the extracellular loop 1 and/or loop 4 of cynomolgus MDR1 were grafted (with a C-terminal FLAG tag) to substitute for the human loops in the human MDR1 using standard techniques. To examine binding dependence on the normal human loops, MDR1 variants with deletion 79-102 and deletion 82-99 in loop 1 were also generated. Loop 1 is also referred to as ECD1. Loop 4 is also referred to as ECD4. These mutant MDR1 efflux pump variants were expressed on 293T cells using standard methods to generate cells that could be used to distinguish binding of various anti-MDR1 mAbs. The different cells were incubated with different anti-MDR1 mAbs for about 1 hour at 4° C. The cells were washed twice with FACS buffer (PBS containing 0.5% BSA). Alexa647 labeled goat anti-human antibody was added as a secondary antibody, and the samples were incubated on ice for another 1 hour. Samples were washed again and analyzed by flow cytometry.
(§4) FIG. 9 summarizes the findings from preliminary epitope mapping using mutant human MDR1. […] For example, anti-MDR1 mAb B1.129 requires ECD1 and ECD4 for binding to human MDR1. All of the anti-MDR1 antibodies contact ECD4. […] ECD1 refers to the first extracellular domain of human ABCB1, ECD4 refers to the fourth extracellular domain of human ABCB1 and “others” refers to the remainder of the extracellular domains 2-3 and 5-6 of human ABCB1. Only binding to ECD1 and ECD4 was tested.

[6] = tested on: human MDR1 extracellular loops 1 and 4 (ECD1, ECD4); experiment: as above; format: binding; conditions: mutant versus WT human ABCB1; preliminary epitope mapping
From the text: as §3, §4

Chain of cynomolgus MDR1 (as listed by the source): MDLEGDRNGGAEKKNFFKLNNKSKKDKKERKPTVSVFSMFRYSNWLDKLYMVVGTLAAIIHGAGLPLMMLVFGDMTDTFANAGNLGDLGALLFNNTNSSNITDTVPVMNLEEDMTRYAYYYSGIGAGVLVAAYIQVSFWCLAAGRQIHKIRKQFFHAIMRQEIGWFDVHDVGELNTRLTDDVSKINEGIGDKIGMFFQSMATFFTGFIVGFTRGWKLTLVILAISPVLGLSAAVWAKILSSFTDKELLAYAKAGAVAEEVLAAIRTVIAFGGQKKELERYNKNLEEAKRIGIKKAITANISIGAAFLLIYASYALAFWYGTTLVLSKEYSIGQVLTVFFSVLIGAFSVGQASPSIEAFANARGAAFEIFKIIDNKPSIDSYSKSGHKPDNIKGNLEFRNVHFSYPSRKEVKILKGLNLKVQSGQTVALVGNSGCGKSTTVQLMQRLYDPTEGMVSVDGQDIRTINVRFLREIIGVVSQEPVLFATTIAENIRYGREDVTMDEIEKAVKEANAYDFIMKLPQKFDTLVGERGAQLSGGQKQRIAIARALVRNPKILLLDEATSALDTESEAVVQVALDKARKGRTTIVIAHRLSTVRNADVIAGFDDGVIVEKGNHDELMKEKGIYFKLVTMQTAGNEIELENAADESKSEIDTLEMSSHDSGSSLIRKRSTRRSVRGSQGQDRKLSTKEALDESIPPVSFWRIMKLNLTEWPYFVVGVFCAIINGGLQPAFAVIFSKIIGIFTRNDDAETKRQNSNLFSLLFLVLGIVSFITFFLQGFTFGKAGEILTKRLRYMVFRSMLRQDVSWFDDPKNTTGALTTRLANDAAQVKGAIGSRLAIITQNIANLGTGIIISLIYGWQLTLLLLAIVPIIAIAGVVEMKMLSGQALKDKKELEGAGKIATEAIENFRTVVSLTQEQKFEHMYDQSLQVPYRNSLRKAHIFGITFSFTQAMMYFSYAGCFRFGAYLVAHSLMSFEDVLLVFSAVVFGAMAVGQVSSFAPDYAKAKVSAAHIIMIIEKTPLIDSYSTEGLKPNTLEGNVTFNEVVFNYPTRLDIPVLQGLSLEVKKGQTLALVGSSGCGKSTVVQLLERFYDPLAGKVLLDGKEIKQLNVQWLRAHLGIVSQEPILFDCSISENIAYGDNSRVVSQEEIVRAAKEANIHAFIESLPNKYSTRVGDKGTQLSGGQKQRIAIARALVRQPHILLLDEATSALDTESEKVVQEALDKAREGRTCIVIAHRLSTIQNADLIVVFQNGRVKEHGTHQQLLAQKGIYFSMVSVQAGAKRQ

B1: B1.129.huH1-huL1(KV3): humanized B1.129; VH SEQ ID NO:63, VL SEQ ID NO:64 (antibody, V domains shown)
VH: EVQLVQSGAEVKKPGASVKVSCKASGYTFSTYVIHWVRQAPGQGLEWIGYIYPYNDYTKYNEKFKDRATLTSDKSTSTAYMELRSLRSDDTAVYYCSRAYYGNLVGYGVDYWGQGTTVTVSS
VL: EIVLTQSPATLSLSPGERATLSCRASSSVSFIYWYQQKPGQSPRPWIFATSNLASGVPARFSGSGSGTDYTLTISSLEPEDFAVYYCHQWGSNLPTFGGGTKLEIK
modifications: humanized sequence
binding to human MDR1 (hB1) (human MDR1 [1]): binds to both hB1 and cB1 with a lower affinity
binding to cynomolgus MDR1 (cB1) (cynomolgus MDR1): binds to both hB1 and cB1 with a lower affinity

B2: B1.129.huH1-huL1(KV1): humanized B1.129; VH SEQ ID NO:63, VL SEQ ID NO:65 (antibody, V domains shown)
VH: EVQLVQSGAEVKKPGASVKVSCKASGYTFSTYVIHWVRQAPGQGLEWIGYIYPYNDYTKYNEKFKDRATLTSDKSTSTAYMELRSLRSDDTAVYYCSRAYYGNLVGYGVDYWGQGTTVTVSS
VL: DIQLTQSPSSLSASVGDRVTITCRASSSVSFIYWYQQKPGKSPKPWIFATSNLASGVPSRFSGSGSGTDYTLTISSLQPEDFATYYCHQWGSNLPTFGGGTKLEIK
modifications: humanized sequence
binding to human MDR1 (hB1) (human MDR1 [1]): did not show significant binding
binding to cynomolgus MDR1 (cB1) (cynomolgus MDR1): did not show significant binding

B3: B1.129: anti-MDR1 antibody, Mouse; VH SEQ ID NO:56, VL SEQ ID NO:60 (antibody, listed as Mus musculus, V domains shown)
VH: EVQLQQSGPELVKPGASVKMSCKASGYTFSTYVIHWVKQKPGQGLEWIGYIYPYNDYTKYNEKFKDKATLTSDKSSSTAYMEIRSLTSEDSAVYYCSRAYYGNLVGYGVDYWGQGTSVTVSS
VL: QIVLTQSPAILPASPGEKVTMTCRASSSVSFIYWYQQRPGSSPKPWIFATSNLASGVPARFSGSGSGTSYSLTISRVEAEDAATYYCHQWGSNLPTFGGGTKLEIK
tumor volume, single agent [2]: decreased tumor volume
tumor volume, in combination with paclitaxel [2]: decreased tumor volume
inhibition of efflux of DIOC2 (human MDR1 [3]; 293T.hB1 cell line): inhibited efflux
inhibition of efflux of Rhodamine (human MDR1 [3]; 293T.hB1 cell line): inhibited efflux
inhibition of efflux of DIOC2 (human MDR1 [3]; MES-SA/Dx5 cells): inhibited efflux
inhibition of efflux of Rhodamine (human MDR1 [3]; MES-SA/Dx5 cells): inhibited efflux
inhibition of efflux of Calcein (human MDR1 [3]; cell line not given): inhibited efflux of Calcein to a greater extent than the anti-MDR1 antibody 15D3
binding to human MDR1 (hB1) (human MDR1 [1]): binds
binding to cynomolgus MDR1 (cB1) (cynomolgus MDR1): binds
tumor volume / tumor growth, single agent [4]: decreased tumor volume; also recorded: more effective in inhibiting tumor growth than 15D3 antibody
tumor volume / tumor growth, in combination with paclitaxel [4]: decreased tumor volume; also recorded: more effective in inhibiting tumor growth than 15D3 antibody
epitope on human MDR1 [5]: bind to an epitope comprising extracellular loop 1 and extracellular loop 4
ECD1 required for antibody binding to human ABCB1 [6]: requires
ECD4 required for antibody binding to human ABCB1 [6]: requires

B4: B1.28: anti-MDR1 antibody, Mouse; VH SEQ ID NO:14, VL SEQ ID NO:18 (antibody, listed as Mus musculus, V domains shown)
VH: EVKLVESGGGLVKPGGSLKLSCAASGFTFGLYTMSWVRQTPERRLEWVATISSGGSNTYYPDSVKGRFTISRDNAKNNLFLQMNSLRSEDTALYYCARYYRYDAWFAYWGQGTLVTVSS
VL: DVLLTQTPLSLPVSLGDQASISCRSSQNIVHSTGNTYLDWYLQKPGQSPKLLIYKVSNRFSGVPDRFSGSGSGTDFTLKISRVEAEDLGVYFCFQGSHIPRTFGGGTKLEIK
tumor volume, single agent [2]: decreased tumor volume
tumor volume, in combination with paclitaxel [2]: decreased tumor volume
binding to human MDR1 (hB1) (human MDR1 [1]): binds to both hB1 and cB1
binding to cynomolgus MDR1 (cB1) (cynomolgus MDR1): binds to both hB1 and cB1

B5: B1.261: anti-MDR1 antibody, Mouse; VH SEQ ID NO:118, VL SEQ ID NO:122 (antibody, listed as Mus musculus, V domains shown)
VH: QVQLKESGPGLVAPSQSLSITCTVSGFSLTSYGVHWVRQPPGKGLEWLVVIWSDGSTTYNSALKSRLSISKDNSKSQVFLKMNSLQIDDTAMYYCARHGRWLLQRGGAMDYWGQGTSVTVSS
VL: DVVMTQAPKFMSTSVGDRVSVTCRASQNVGSYIAWYQQKLGQSPKALIYSASYRCSGVPDRFTGSGAGTDFTLTIRNVQSEDLAEYFCQQYNSYPLTFGGGTKLEIK
tumor volume, single agent [2]: decreased tumor volume
tumor volume, in combination with paclitaxel [2]: decreased tumor volume
binding to human MDR1 (hB1) (human MDR1 [1]): bind to hB1 and cB1
binding to cynomolgus MDR1 (cB1) (cynomolgus MDR1): bind to hB1 and cB1
tumor volume / tumor growth, single agent [4]: decreased tumor volume
tumor volume / tumor growth, in combination with paclitaxel [4]: decreased tumor volume
sensitization of MES-SA DX5 uterine sarcoma to paclitaxel ([4]; MES-SA DX5 tumors in vivo): sensitized
